These results are taken from the RNAGym collection of RNA variant scans (doi:10.1073/pnas.2313332121).

The chains are these.
B1: TPR t1 (parent)
chain: GACCAAUCUGCCCUCAGAGCUCGAGAACAUCUUCGGAUGCAGAGGAGGCAGGCUUCGGUGGCGCGAUAGCGCCAACGUCCUCAACCUCCAAUGCAUCCCACCACAUGAUGAUGCCUGAAGAGCCUUGGUUUUUUG

In this series the parent is B1. In words: polymerase ribozyme fitness, log enrichment relative to wild type (log ratio); higher = more active; in vitro selection for triplet polymerase activity. The procedure, abridged: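 Streptavidin-bead capture of gel-excised extended constructs, followed by RT-PCR, closed a single triplicate in vitro selection round. That round began by annealing PCR-built, transcribed mutant libraries of each subunit of a heterodimeric triplet polymerase ribozyme with a biotinylated primer, the partner subunit and triplets, then incubating them frozen at −7 °C. After Illumina sequencing of inputs and outputs, genotypes needed ≥10 input reads and ≥1 read per output. Fitness is the base-2 logarithm of genotype enrichment over wild-type enrichment, using inverse-variance-weighted replicate averages.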
As to GACCAAUCUGCCCUCAGAGCUCGAGAACAUCUUAGGAUGCAGAGGAGGCAGGCUUCGGUGGCGCGAUAGCGCCAACGUCUUCAACCUCCAAUGCAUCCCACCACAUGAUGAUGCCUGAAGAGCCUUUGUUUUUUG [C34A C80U G127U], the “polymerase ribozyme fitness (log ratio)” value is -4.5.

As to GACCAAUCUGCCCACAGAGCUCGAGAACAUCUUCGGAUGCAGAGGAGGCAGGCUUCGGUGGCGCGAUAGCGCCAACGUCCUCAACCUCCAAUGCAUCCCACCACAAGAUGAUGCCUGAAGAGCCUUGGUUUUUUG [U14A U106A], the “polymerase ribozyme fitness (log ratio)” value was -1.9.

As for GACCAAUUUGGCCUCAGAGCUCGAGAACAUCUUCGGAUGCAGAGGAGGCAGGCUUCGGUGGCGCGAUAGCGCCAACGUCCUCAACCUCCAAUACAUCCCACCACAUGAUGAUGCCUGAAGAGCCUUGGUUUUUUG [C8U C11G G93A], the “polymerase ribozyme fitness (log ratio)” value was -0.424.

Consider GACCAAUCUGCCCUCAGAGCUCGAGAACAUCUUCGGAUGCAGAGGAGGCAGGCUUCGGUGGCGCGAUAGCUCCAACGUCCUCAACCUCCAAUGCAUCCCACCACAUGAUGAUGGCUGAAGAGCCUUGGUUUUUUG [G71U C114G], for which the “polymerase ribozyme fitness (log ratio)” value is -2.81.

As for GACCAAUCUGCCCUCAGAGCUCGAGAACAUCUUCGGAUGCAGAGGAGGCAGGCUUCGGUGGCGCGAUAGCGCCAACGUCCUCAACCUCCAAUGCAUCUCACCACAUGAUGAUGCCCGAAGAGCCUUGGUUUUUUG [C98U U116C], the “polymerase ribozyme fitness (log ratio)” value is -1.99.

Turning to GACCAAUCUUCACUCAGAGCUCGAGAACAUCUUCGGAUGCAGAGGAGGCAGGCUUCGGUGGCGCGAUAGCUCCAACGACUUCAACCUCCAAUGCAUCCCACCACAUGAUGAUGGCUGAAGAGCCUUGGUUUUUUG [G10U C12A G71U U78A C80U C114G], the “polymerase ribozyme fitness (log ratio)” value was -3.23.

For the variant GACCAAUCUGCCCUCAGAGCUCGAGAACAUCUUCGGAUGCAGAGGAGGCAGGCUUCGGUGGCGCGAUAGCGCCAACGUCCUUAACCUCCAAUGCAUCCCACCACAUGAUGAUGCCUGAAGAGCCUUUGUUUUUUG [C82U G127U], the “polymerase ribozyme fitness (log ratio)” value is -0.724.

Take GACCAAUCUGCCCUCAGAGCUCGAGAACAUCUUCGGAUGCAAAGUAGGCAGGCUUCUGUGGCGCGAUAGCGCCAACGUCCUCAACCUUCAAUGCAUCCCACCACAUGAUGAUGCCUGAAGAGCCUUGGUAUUUUG [G42A G45U G57U C88U U130A]: the “polymerase ribozyme fitness (log ratio)” value was -3.68.

Consider GACCAAUCUGCCCUCAGAGCUCGAGAACAUCUUCGGAUGCAGAGGACGCAGGCUUCGGUGGCGCGAUAGCACCAACGUCCUCAACCUCCAAUGCAUCCCACCACAUGAUGAUGCCUGAAGAGCCUUGGUUUUUUG [G47C G71A], for which the “polymerase ribozyme fitness (log ratio)” value was -3.14.

Regarding GACCAAUCUGCCCUCAGAGCUCGAGAACAUCUUCGGAUGCAGAGGAGGCAGGCUUCGGUGGCGCGAUAGCGGCAACGUCCUCAACCUCCAAUGCAUCCCACCACAUGAAGAUGCCUGAAGAGACUUGGUUUUUUG [C72G U109A C123A], the “polymerase ribozyme fitness (log ratio)” value is -5.46.

For GACCAAUCUGCCCUCAGAGCUCGAGAACAUGUUCGGAUGCAGAGGAGGCAGGCUUCGGUGGCGCGAUAGUGCCAACGUCCUGAACCUCCAAUGCAUCCCACCACAUGAUGAUGCCUCAAGAGCCUUGGUUUUUUG [C31G C70U C82G G117C], the “polymerase ribozyme fitness (log ratio)” value is -7.1.

Consider GACCAAUCUGCCCUCAGAGCGCGAGAACAUCUUCGGAUGCAGAGGAGGCAGGCUUCGGUGGCGCGAUAGCGCCAACGUCCUCAACCACCAAUGCAUCCCACCACAUGAUGAUGCCUGAAGAGCCUUGGUUUUGUU [U21G U87A U133G G135U], for which the “polymerase ribozyme fitness (log ratio)” value is -1.41.

With GACCAAUCUGCCCUCAGAGCUCGAGAACAUCUUCGGAUGCAGAGGAGGCAUGCUUCGGUGGCGCGAUAGCGCCAACGUCUUCAACCUACAAUGCAUCCCACCACAUGAUGAUGCCUGAGGAGCCUUGGUUUUUUG [G51U C80U C88A A119G], the “polymerase ribozyme fitness (log ratio)” value is -1.11.

GACCAAUCUGCCCUCAGAGCUCGAGAACAUCUUCGGAUGCAGAGGAGGCAGGCUUCGGUGGCGCGAUAGCGCCAACGUCCUCAAGCUCCAAUGCAUCCCACCACAUGAUGAUGCCUGAAGAGCCUUGGUUAUUUG [C85G U131A]: the “polymerase ribozyme fitness (log ratio)” value is -1.92.

In the case of GACCAAUCUGUCCUCAGAGCUCGAGAACAUCUUCGGAUGCAGAGGAGGCAGGCUUCGGUGGCGCGAUAGCGCCAACGUCCUCAACCUCCAAUGCAUUCCACCACAUGAUGAUGCCUGAAGAGCCUUGGUUUUUUG [C11U C97U], the “polymerase ribozyme fitness (log ratio)” value is -1.74.

Consider GACCAAUCUGCCCUCAGAGCUCGAGAACAUCUUCGGAUUGAGAGGAGGCAGGCUUCGGUGGCGCGAUAGCGCCAACGUCCUCAACCUCCAAUGCAUCCCACCACAAGAAGAUGCCUGAACAGCCUUGGUUUUUUG [G39U C40G U106A U109A G120C], for which the “polymerase ribozyme fitness (log ratio)” value is -5.48.

GACCAAUCUCCCCUCAGAGCUCGAGGACAUCUUCGGAUGCAGAGGAGGCAGGCUUCGGUGGCGCGAUAACGCCAACGUCCUCAACCUCCAAUGCAUCCCACCACAUGAUGAUGCCUGAAGAGCCAUGGUUUUUUG [G10C A26G G69A U125A]: the “polymerase ribozyme fitness (log ratio)” value was -5.51.

Regarding GACCAAUCUGCCCUCAGAGCUCGAGAACAUCUUCGGAUGCAGAGGAGGCAGGCUUCGGUGGGGCGAUAGCGCCAAGGUCCUCAACCUCCAAUGCAUCCCACCACAUGAUGAAGCCUGAAGAGCCUUGGUUUUUUG [C62G C76G U112A], the “polymerase ribozyme fitness (log ratio)” value is -3.99.

For GACCAAUCUGCCCUCAGAGCUCGAGAACAUCUUCGGAUGCAGAGGAGGCAAGCUUCGGUGGCGCGAUAGCGCCGACGUCCUCGACCUCCAAUGCAUCCCACCACAUGAUGAUGCCUGAAUAGGCUUGUUUUUUUG [G51A A74G A83G G120U C123G G128U], the “polymerase ribozyme fitness (log ratio)” value was -1.97.

GACCAAUCUGCCCUCAGAGCUCGAGAACAUCUUCGGAUGCAGAGGAGGCAGGCUUCGGUGGCGCGAUAGCGCCAACGUCCUCAACCUCCAAUGCAUCCCACCACAUGAUGAUGCGUGAAGAGCCUCGGUUUAUUG [C115G U126C U132A]: the “polymerase ribozyme fitness (log ratio)” value is -4.83.

Turning to GACCAAUCUGCCCUCAGAGCUCGAGAACAUCUUCGGAUGCAGAGGAGGCAGGCUUCGGUGGCGCGAUAGCGUCAACGUCCUCAACCUCCAAUGCAUCCCACCACAUGAUGAUGCCUGAAGAGCCUUGGAUUUUUG [C72U U129A], the “polymerase ribozyme fitness (log ratio)” value is -1.42.
